{
  "source": "paper PMC3755335",
  "about": "“Inactivation of the phosphoglucomutase gene pgm in Corynebacterium glutamicum affects cell shape and glycogen metabolism” (Bioscience Reports, 2013)",
  "proteins": {"B1": {"name": "phosphoglucomutase Pgm (main Pgm isoenzyme, encoded by pgm, cg2800) of Corynebacterium glutamicum (enzyme, UniProt Q8NMN0 1-554, looked up)", "chain": "MAHERAGQLAQPEDLIDVAELVTAYFTRKPDVNNPDQQVAFGTSGHRGSALDSAFNEDHILATTQAIVDYRNQQPKNWVGPLFIGRDTHALSEPAMISALEVLIANDVEVLVDADGRYTPTPAVSHAILRHNDGIILGTAGPSRPYADGIVITPSHNPPRDGGFKYNPANGGPADTDATDWIANRANDILRGDLADVKRVPVSGVLDERTTAYDFKGIYIADLPNVVNIDAIREAGVRIGADPMGGASVDYWGAIAETHGLNLTVVNPHVDSTFRFMTLDTDGKIRMDCSSPHAMASLIDNRDKFDVATGNDADADRHGIVTPDAGLMNPNHYLAVAIEYLFAHRPGWSADTAVGKTLVSSSMIDRVVAQLGRTLVEVPVGFKWFVPGLISGEIGFGGEESAGASFLRMDGTTWSTDKDGLILDLLAAEIIAVTGKTPSQRYAELAEEFGAPAYARTDAEANREQKAILKALSPEQVTATELAGEAITAKLTEAPGNGAAIGGLKVTTENAWFAARPSGTEDKYKIYAESFKGEEHLAQVQKEAQALVSEVLGQ", "notes": "Phosphoglucomutase Pgm of Corynebacterium glutamicum, ORF cg2800 (pgm), native enzyme; band of approx. 60 kDa on SDS/PAGE assigned to cg2800 by MALDI-TOF-MS peptide fingerprinting; Endogenous, untagged enzyme; the final gel filtration fraction still held a second band (approx. 80 kDa, cg2523, malQ); also called α-Pgm; pgm gene product"}},
  "key": {"[1]": {"substrate": "O=P(O)(O)O[C@H]1O[C@H](CO)[C@@H](O)[C@H](O)[C@H]1O", "test": "coupled assay with glc-6-P dehydrogenase (NADP reduction)", "assay_type": "biochemical, Corynebacterium glutamicum", "details": "100 mM Tris/HCl pH 7.4, 10 mM MgCl2, 1 mM NADP, 2 units glc-6-P dehydrogenase, glc-1-P 0.05–20 mM"}, "[2]": {"target": "the molecule itself", "test": "SEC; HiLoad XK16/60 Superdex 200 PrepGrade, 0.02 M sodium phosphate, 0.15 M NaCl, pH 7.4, 0.5 ml/min; fractions screened by Pgm activity; retention volume compared with standard proteins (LMW and HMW calibration kits)"}},
  "data": [
    {"protein": "B1", "values": [
      {"measurement": "Km", "setting": "[1]", "result": "1410 ± 230", "unit": "µM"},
      {"measurement": "stoichiometry N", "setting": "[2]", "result": 2}
    ]}
  ]
}
